From patent US20060099689A1

Key:
Assay in all cases: cell-based or functional assay
[1] = molecular target: H-GST-DEVD/X-mLIF with X = D (murine) (UniProt P09056)
[2] = molecular target: H-GST-DEVD/X-mLIF with X = E (murine) (UniProt P09056)
[3] = molecular target: H-GST-DEVD/X-mLIF with X = proline (P) (murine) (UniProt P09056)

murine Caspase-3 (from UniProt P70677 29-175; P70677 176-277) (enzyme)
inhibition of processing [1]: 25% | inhibition of processing [2]: 25% | inhibition of processing [3]: 75%
